# Where a chain is given by its changes, count along the chain named.
# B1: 2C8 IgG1 with LALA mutation (antibody, V domains shown)
# VH: QVQLQQSGPGLVKPSQTLSLTCAISGDTVSSNTAAWNWIRQSPSRGLEWLGRTYYRSKWYSDYGLSVKSRMTINADTSKNQVSLHLNSVTPEDTAVYYCAREGSGGTLIYWGQGTLVTVSS
# VL: DIQLTQSPSSVSASVGDRVTITCRATQGISSWLAWYQQKPGKAPKLLIYAASSLQSGVPSRFSGSGSGTEFTLTISSLQPEDFATYYCQQANTLPLFTFGPGTKVDIK
# notes: also called 2C8 with LALA mutation; 2C8 with the mutation
# B2: anti-CTLA-4 antibody clone 2C8, Fab (Fab, V domains shown)
# VH: B1 VH
# VL: B1 VL
# notes: Fab from a human antibody phage display library
# B3: anti-CTLA-4 antibody clone 2C8, human IgG1 (antibody, V domains shown)
# VH: B1 VH
# VL: B1 VL
# notes: also called 2C8 IgG; 2C8 IgG1
# B4: 2C8 IgG4 (antibody, V domains shown)
# VH: B1 VH
# VL: B1 VL
# notes: IgG4 format; also called IgG4 version of 2C8
# B5: anti-CTLA-4 antibody clone 2C8_gI, IgG1 (antibody, V domains shown)
# VH: B1 VH with T28S, M71I, A75P, V82F, H85Q
# VL: B1 VL with L4M, E70D
# notes: IgG1; also called germline version of the antibody
# B6: L3D10 (commercial mouse anti-human CTLA-4 IgG1) (antibody, V domains shown)
# VH: QVQLKESGPGLVAPSQSLSITCTVSGFSLTSYGLSWVRQPPGKGLEWLGVIWYDGNTNFHSALISRLTISKDNSKSQVFLELNSLQTDDTATYYCAKTEGHYYGSNYGYYALDYWGQGTSVTVSS
# VL: DIQMTQSPASLSVSVGETVTITCRASENIYSNLAWYQQKQGKSPQLLVYAATNLADGVPSRFSGSGSGTQYSLKINSLQSEDFGTYFCQHLWGTPYTFGGGTKLEIK
# Columns and labels:
# mouse CTLA-4 [1] = target: T1, mouse CTLA-4 (mouse, UniProt P09793 36-161, limits assumed); assay: affinity ELISA, antibody coated, mouse CTLA-4 titrated; 2C8 IgG1 with LALA mutation (L234A, L235A)
# T1 construct: construct not described; also called murine CTLA-4; the mouse protein
# Excerpt: (§1) The “LALA” mutation refers to mutation of leucine residues at positions 234 and […] of the of the Fc region to alanine (i.e. L234A, L235A); this mutation is known to weaken interaction between Fc and Fc-γR, and therefore to prevent ADCC activity (see e.g. Hezareh et al., J Virol (2001) 75(24):12161-12168).
# mouse CTLA-4 [2] = target: T1, mouse CTLA-4; assay: avidity ELISA, mouse CTLA-4 coated, antibody titrated
# Experimental: (§2) The response curve was plotted (see FIG. 10), and EC50 was calculated.
# human CTLA-4 [3] = target: T2, human CTLA-4 (human, UniProt P16410 36-161, limits assumed); assay: cell-based or functional assay
# human CTLA-4 [4] = target: T2, human CTLA-4; assay: blocking ELISA: antibody pre-incubated with human CTLA-4, binding of CTLA-4 to coated CD80 detected
# human CTLA-4 [5] = target: T2, human CTLA-4; assay: ELISA, human CTLA-4 coated, Fab titrated
# [6] = target: T3, Human CD28 conjugated to human Fc (human, UniProt P10747 19-152); assay: ELISA, human CD28-Fc coated, antibody titrated
# T3 construct: not shown: human Fc
# [7] = target: T4, mouse CTLA-4 expressed on HEK-293.6E cells (mouse, UniProt P09793 36-223); assay: flow cytometry on HEK-293.6E cells transfected with mouse CTLA-4
# T4 construct: whole, on cells; also called cell surface-expressed mouse CTLA-4
# human CTLA-4 [8] = target: T2, human CTLA-4; assay: avidity ELISA, human CTLA-4 coated, antibody titrated
# Experimental: as §2
# [9] = target: T3, Human CD28 conjugated to human Fc; assay: ELISA, human CD28-human Fc coated, antibody titrated
# [10] = target: T5, human CTLA-4 expressed on HEK-293.6E cells (human, UniProt P16410 36-223); assay: flow cytometry on HEK-293.6E cells transfected with human CTLA-4
# T5 construct: whole, on cells; also called cell surface-expressed human CTLA-4
# human CTLA-4 [11] = target: T2, human CTLA-4; assay: SPR, antibody immobilised on chip, human CTLA-4 flowed over
# Cynomolgus/Rhesus CTLA-4 = target: T6, Cynomolgus/Rhesus CTLA-4 (cynomolgus/rhesus); assay: ELISA, antibody coated, Cynomolgus/Rhesus CTLA-4 titrated
# T6 construct: Printed as one protein 'Cynomolgus/Rhesus CTLA-4'
# human CTLA-4 [12] = target: T2, human CTLA-4; assay: affinity ELISA, antibody coated, human CTLA-4 titrated
# mouse CTLA-4 [13] = target: T1, mouse CTLA-4; assay: affinity ELISA, antibody coated, mouse CTLA-4 titrated; 2C8 IgG1
# Excerpt: as §1
# mouse CTLA-4 [14] = target: T1, mouse CTLA-4; assay: affinity ELISA, antibody coated, mouse CTLA-4 titrated; 2C8 IgG4
# Excerpt: as §1
# mouse CTLA-4 [15] = target: T1, mouse CTLA-4; assay: affinity ELISA, antibody coated, mouse CTLA-4 titrated; 2C8_gI IgG1
# Excerpt: as §1
# T2 sequence (P16410 36-161 limits assumed): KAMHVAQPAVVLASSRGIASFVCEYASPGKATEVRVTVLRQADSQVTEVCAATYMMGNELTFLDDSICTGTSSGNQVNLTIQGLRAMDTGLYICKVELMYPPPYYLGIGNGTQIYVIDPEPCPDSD
# T5 sequence (P16410 36-223): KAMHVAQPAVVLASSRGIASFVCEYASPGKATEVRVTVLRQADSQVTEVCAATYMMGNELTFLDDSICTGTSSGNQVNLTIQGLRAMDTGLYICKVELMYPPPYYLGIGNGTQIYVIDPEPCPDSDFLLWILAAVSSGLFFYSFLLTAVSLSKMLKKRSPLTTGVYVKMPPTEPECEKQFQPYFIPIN
binder,measurement,setting,value
B1,EC50,mouse CTLA-4 [1],5.1 nM
same,EC50,mouse CTLA-4 [2],8 nM
same,"EC50, T cell reactivation assay (IL-2 secretion by Jurkat T cells)",human CTLA-4 [3],0.7 to 1.2 nM
B2,IC50 (read off the curve),human CTLA-4 [4],~5 nM
same,EC50 (read off the curve),human CTLA-4 [5],~1 nM
same,binding result,[6],no binding (tested: 1000 nM)
B3,EC50 (read off the curve),[7],~6 nM
same,EC50,human CTLA-4 [8],0.0636 nM
same,binding result,[9],no binding
same,EC50 (read off the curve),[10],~4 nM
same,Kd,human CTLA-4 [11],9.6 nM
same,EC50,mouse CTLA-4 [2],4.9 nM
same,EC50 (read off the curve),Cynomolgus/Rhesus CTLA-4,~0.3 nM
same,EC50,human CTLA-4 [12],5 nM
same,EC50,mouse CTLA-4 [13],9.6 nM
B4,EC50,mouse CTLA-4 [14],7 nM
same,EC50,mouse CTLA-4 [2],20.9 nM
B5,EC50,mouse CTLA-4 [2],77.1 nM
same,EC50,mouse CTLA-4 [15],23.5 nM
B6,IC50 (read off the curve),human CTLA-4 [4],~1 nM

# — patent US20170226211A1 (AGENCY OR SCIENCE TECHNOLOGY AND RESEARCH, published 2017)
